*1 amine or outer side, *2 acyl side, *3 side chain or, on linkers, in order; H or OH if unused. Where no end group is shown, it is not given here. [ ]: non-standard residue; d: D form. KCme2 = N-dimethylated aminoethylcysteine, CN(C)CCSC[C@H](N[*:1])C(=O)[*:2]; Me2 = dimethyl group on the Lys side-chain amine
Columns and labels:
[1] = target: T1, tandem Tudor domain (TTD) of human 53BP1 (human, UniProt Q12888 1484-1603); assay: NMR titration
[2] = target: T1, tandem Tudor domain (TTD) of human 53BP1; assay: solution NMR structure

T1 sequence (Q12888 1484-1603): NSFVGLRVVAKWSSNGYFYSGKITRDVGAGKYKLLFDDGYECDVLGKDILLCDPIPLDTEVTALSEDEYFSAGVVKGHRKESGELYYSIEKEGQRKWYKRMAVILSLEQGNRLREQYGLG

| Binder | binding result [1] | binding result [2] |
| --- | --- | --- |
| SSHLKSKKGQSTSRHKKLMFK (peptide, UniProt P04637 366-386, looked up, dimethyllysine at 370; dimethyllysine at 382) [p53K370me2K382me2 peptide (residues S366-K386)] | binds | – |
| GHMSTSRHKCLMFKT (not fully specified (residue 10)) [p53KC382me2 peptide (recombinant, dimethyllysine analogue at 382)] | binds | – |
| GHMSTSRHKCGMFKT (not fully specified (residue 10)) [p53KC382me2L383G peptide] | binds | – |
| GHMSTSGHKCLMFKT (not fully specified (residue 10)) [p53R379GKC382me2 peptide] | binds | – |
| GHMRAHSSHLCSKKGQST (not fully specified (residue 11)) [p53KC370me2 peptide (recombinant, dimethyllysine analogue at 370)] | binds | – |
| GHMRAHSSHGCSKKGQST (not fully specified (residue 11)) [p53L369GKC370me2 peptide] | binds | – |
| STSRHKK(Me2)LMFKT (peptide, UniProt P04637 376-387, looked up) [p53K382me2 peptide (residues S376-T387 of p53)] | binds | – |

Further lines, results first:

| binding result [1] | binding result [2] | Binder |
| --- | --- | --- |
| – | binds | RAHSSHLK(Me2)SKKGQST (peptide, UniProt P04637 363-377, looked up) [p53K370me2 peptide (residues R363-T377 of p53)] |
| binds | – | GHMSTSRHKCLMGKT (not fully specified (residue 10)) [p53KC382me2F385G peptide] |
| binds | – | GHMSTSRHGCLMFKT (not fully specified (residue 10)) [p53K381GKC382me2 peptide] |
| binds | – | GHMSTSRGKCLMFKT (not fully specified (residue 10)) [p53H380GKC382me2 peptide] |
| binds | – | GHMRAHSSHLCSGKGQST (not fully specified (residue 11)) [p53KC370me2K372G peptide] |
| binds | – | GHMRAHSSGLCSKKGQST (not fully specified (residue 11)) [p53H368GKC370me2 peptide] |
| binds | – | GHMRAHSSHLCSKGGQST (not fully specified (residue 11)) [p53KC370me2K373G peptide] |
| binds | – | GHMRAGSSHL[KCme2]SKKGQST [p53H365GKC370me2 peptide] |

From PMC4321732 (Structure (London, England : 1993), 2015)
